Assay results published in US20110098440A1 (Novo Nordisk, published 2011).

What was measured:
[1] = target: T1, purified recombinant human insulin receptor (IR-A) (human, UniProt P06213-2 28-1370, limits assumed); assay: SPA competition, displacement of A14Tyr[125I]-human insulin from human insulin receptor, 4.5% HSA; relative to desB30 human insulin = 100%
T1 construct: The receptor was captured on SPA beads through the F12 antibody
Procedure: (§1) The affinity of the acylated insulin analogues of this invention for the human insulin receptor is determined by a SPA assay (Scintillation Proximity Assay) microtiterplate antibody capture assay. […] A total of 100 μl reagent mix is then added to each well in the Packard Optiplate and a dilution series of the insulin derivative is made in the Optiplate from appropriate samples. The samples are then incubated for 16 hours while gently shaken. The phases are the then separated by centrifugation for 1 min and the plates counted in a Topcounter. The binding data were fitted using the nonlinear regression algorithm in the GraphPad Prism 2.01 (GraphPad Software, San Diego, Calif.).

[2] = target: T1, purified recombinant human insulin …; assay: SPA competition, displacement of A14Tyr[125I]-human insulin from human insulin receptor, 0% HSA; relative to desB30 human insulin = 100%
Procedure: as §1

Row | Binder | IR-A affinity (4.5% HSA) [1] | IR-A affinity (0% HSA) [2]
1 | A8H, A22K(N^ε-Octadecandioyl-γGlu-[2-(2-{2-[2-(2-aminoethoxy)ethoxy]acetylamino}ethoxy)ethoxy]-acetyl), B29R, desB30 human insulin (ligand, A22K(N^ε-Octadecandioyl-γGlu-[2-(2-{2-[2-(2-aminoethoxy)ethoxy]acetylamino}ethoxy)ethoxy]-acetyl), also called C18-gGlu-OEG-OEG, A8H, A22K, B29R) chain 1: GIVEQCCHSICSLYQLENYCNK chain 2: FVNQHLCGSHLVEALYLVCGERGFFYTPR | 63% | 417%
2 | A14E, A22K(N^ε-Eicosanedioyl-γGlu-(3-(2-{2-[2-(2-aminoethoxy)ethoxy]ethoxy}ethoxy)propionyl)), B25H, B29R, desB30 human insulin (ligand, A22K(N^ε-Eicosanedioyl-γGlu-(3-(2-{2-[2-(2-aminoethoxy)ethoxy]ethoxy}ethoxy)propionyl)), also called C20-gGlu-PEG3, A14E, A22K, B25H, B29R) chain 1: GIVEQCCTSICSLEQLENYCNK chain 2: FVNQHLCGSHLVEALYLVCGERGFHYTPR | 5.2% | –
3 | A18L, A22K(N^ε-Octadecandioyl-γGlu-[2-(2-{2-[2-(2-aminoethoxy)ethoxy]acetylamino}ethoxy)ethoxy]-acetyl), B29R, desB30 human insulin (ligand, A22K(N^ε-Octadecandioyl-γGlu-[2-(2-{2-[2-(2-aminoethoxy)ethoxy]acetylamino}ethoxy)ethoxy]-acetyl), also called C18-gGlu-OEG-OEG, A18L, A22K, B29R) chain 1: GIVEQCCTSICSLYQLELYCNK chain 2: FVNQHLCGSHLVEALYLVCGERGFFYTPR | 23.6% | 339%
4 | A14E, A22K(N^ε-Octadecandioyl-γGlu-(3-(2-{2-[2-(2-aminoethoxy)ethoxy]ethoxy}ethoxy)propionyl)-γGlu), B25H, B29R, desB30 human insulin (ligand, A22K(N^ε-Octadecandioyl-γGlu-(3-(2-{2-[2-(2-aminoethoxy)ethoxy]ethoxy}ethoxy)propionyl)-γGlu), also called C18-gGlu-PEG3-gGlu, A14E, A22K, B25H, B29R) chain 1: GIVEQCCTSICSLEQLENYCNK chain 2: FVNQHLCGSHLVEALYLVCGERGFHYTPR | – | 23%
5 | A14E, A22K(N^ε-Eicosanedioyl-γGlu-γGlu-(3-[2-(2-{2-[2-(2-{2-[2-(2-aminoethoxy)ethoxy]ethoxy}ethoxy)ethoxy]ethoxy}ethoxy)ethoxy]propionyl)), B25H, B29R, desB30 … (ligand, A22K(N^ε-Eicosanedioyl-γGlu-γGlu-(3-[2-(2-{2-[2-(2-{2-[2-(2-aminoethoxy)ethoxy]ethoxy}ethoxy)ethoxy]ethoxy}ethoxy)ethoxy]propionyl)), also called C20-gGlu-gGlu-PEG7, A14E, A22K, B25H, B29R) chain 1: GIVEQCCTSICSLEQLENYCNK chain 2: FVNQHLCGSHLVEALYLVCGERGFHYTPR | – | 25%
6 | A14E, A22K(N^ε-[2-(2-[2-(2-[2-(Octadecandioyl-γGlu)amino]ethoxy)ethoxy]acetylamino)ethoxy]ethoxy)-acetyl]), B25H, B29R, desB30 human insulin (ligand, A22K(N^ε-[2-(2-[2-(2-[2-(Octadecandioyl-γGlu)amino]ethoxy)ethoxy]acetylamino)ethoxy]ethoxy)-acetyl]), also called C18-gGlu-OEG-OEG, A14E, A22K, B25H, B29R) chain 1: GIVEQCCTSICSLEQLENYCNK chain 2: FVNQHLCGSHLVEALYLVCGERGFHYTPR | 5% | 22.4%
7 | A14E, A22K(N^ε-Octadecandioyl-γGlu-(3-[2-(2-{2-[2-(2-{2-[2-(2-aminoethoxy)ethoxy]ethoxy}ethoxy)ethoxy]ethoxy}ethoxy)ethoxy]propionyl)), B25H, B29R, desB30 … (ligand, A22K(N^ε-Octadecandioyl-γGlu-(3-[2-(2-{2-[2-(2-{2-[2-(2-aminoethoxy)ethoxy]ethoxy}ethoxy)ethoxy]ethoxy}ethoxy)ethoxy]propionyl)), also called C18-gGlu-PEG7, A14E, A22K, B25H, B29R) chain 1: GIVEQCCTSICSLEQLENYCNK chain 2: FVNQHLCGSHLVEALYLVCGERGFHYTPR | – | 28%
